The source of these data is PMC13078889.

The subject of data set [1] is LARP6. Nature of the data set: TR-FRET competition. As to conditions: vs DIG-labeled A1 RNA; not in the material. Background: In TR-FRET formats the signal depends on donor and acceptor labels being close together.
Data set [2] concerns LARP6. Nature of the data set: ITC. The note with it: not in the material.

Turning to A1 RNA (COL1A1 5'SL, 48 nt), the IC50 with LARP6 [1] came out at 6.84 nM. The substance COL1A1-5'SL (A1), ITC gave a Kd in the data set with LARP6 [2] (only stated as higher Kd than COL1A1-TIS, value in Table 2 not in material) greater than 400 nM. The substance COL1A1-TIS returned a Kd with LARP6 [2] of 400 nM. The substance also came in with an IC50 in the data set on LARP6 [1] of 2.71 nM.

By IC50 is commonly meant the concentration that gives 50% inhibition. The term Kd denotes the concentration at which binding is half-saturated. A high value points to weaker binding.
